Experimental findings from US20210340531A1 (YALE UNIVERSITY, published 2021) are described below.

Series [1] deals with the molecule itself. Description: in vitro filament assembly, negative-stain electron microscopy. On the procedure: Filament assembly was terminated after 10 min by adding stop buffer (0.2% glutaraldehyde, 20 mM KCl, 0.7 mM NaHPO). Filament samples were immediately applied to a Carbon type B-400 mesh-Copper grid charged with Pelco easiGlow (Ted Pella, Redding, Calif.) at 25 mA for 30s, and negatively stained using 2% aqueous uranyl acetate. Images were captured with a Talos L120C Electron Microscope from FEI (Hillsboro, Oreg.).
Protein production and purification: Full-length wild-type K1, K10, K8, K18, and vimentin constructs in pET-21a(+) or pET-24a(+) based plasmids are used. K1, K8, and vimentin knob mutants (both individual [FA, LA] and double [FLAA] residue mutants) are also used. K10 is expressed in E. coli BL21(DE3)pLysS cells at 20° C. for 72 hours using an autoinduction method. Expression of all other keratins and vimentins occur in E. coli BL21(DE3) cells using LB at 37° C. for 3 hours with 1 mM IPTG for induction. […]
Electron microscopy: Filament samples are immediately applied to a Carbon type B-400 mesh-Copper grid charged with Pelco easiGlow (Ted Pella, Redding, Calif.) at 25 mA for 30s, and negatively stained using 2% aqueous uranyl acetate. […] Images are analyzed for the number, length, width, and shape of filamentous structures formed at each timepoint to evaluate the dynamics of IF assembly in vitro for both wild-type and knob mutant proteins.

Series [2] concerns the molecule itself. Description: gel filtration. A general note: SEC sorts molecules by how far they enter the pores of the column.
Series [3] has as its target T1, keratin 10 helix 1B (human, UniProt P13645 195-296).
T1 construct: Single chain of the K1/K10-1B complex; His6 tag removed with thrombin before gel filtration, light scattering and crystallization; also called K10-1B; K10
Description: X-ray crystal structure, asymmetric unit. On the procedure:
The final model of the K1^S233L/K10-1B mutant crystal asymmetric unit contained one K1-1B S233L and one K10-1B molecules. The final Ramachandran statistics were: residues in favorable regions, 99%; in allowed regions, 1%; in outlier regions, 0%. Electrostatics were calculated using PDB2PQR and Adaptive Poisson-Boltzmann Software (APBS). Structural analyses were performed using Coot, UCSF Chimera (Resource for Biocomputing, Visualization, and Informatics, University of California, San Francisco), WHAT IF, ESBRI, and PDBePISA (The European Bioinformatics Institute, European Molecular Biology Laboratory, UK). Figures were prepared using UCSF Chimera and Adobe Illustrator. Atomic coordinates and structure factors have been deposited in the Protein Data Bank under the accession code TBD.
Mutant K1/K10-1B (22.8 mg/ml) in 100 mM Tris-HCl buffer (pH 7.4) containing 200 mM NaCl was crystallized using 100 mM Tris buffer (pH 8.5) containing 1.5M ammonium sulfate and 12% glycerol. Crystals were soaked 1-3 min in a cryoprotectant solution containing 27% glycerol in mother liquor prior to flash-freezing in liquid nitrogen. One native data set on a single crystal was collected (λ=0.9795 Å). The native crystal belonged to the hexagonal space group P6 22 (cell dimensions: a=93.29 Å, b=93.29 Å, c=124.74 Å, α=β=90, γ=120). […]

Series [4] has as its target T1, keratin 10 helix 1B. Put plainly: K1 knob mutants with K10-1B.

B1: full-length wild-type K1/K10 heterodimeric complex (other)
chain 1: MSRQFSSRSGYRSGGGFSSGSAGIINYQRRTTSSSTRRSGGGGGRFSSCGGGGGSFGAGGGFGSRSLVNLGGSKSISISVARGGGRGSGFGGGYGGGGFGGGGFGGGGFGGGGIGGGGFGGFGSGGGGFGGGGFGGGGYGGGYGPVCPPGGIQEVTINQSLLQPLNVEIDPEIQKVKSREREQIKSLNNQFASFIDKVRFLEQQNQVLQTKWELLQQVDTSTRTHNLEPYFESFINNLRRRVDQLKSDQSRLDSELKNMQDMVEDYRNKYEDEINKRTNAENEFVTIKKDVDGAYMTKVDLQAKLDNLQQEIDFLTALYQAELSQMQTQISETNVILSMDNNRSLDLDSIIAEVKAQNEDIAQKSKAEAESLYQSKYEELQITAGRHGDSVRNSKIEISELNRVIQRLRSEIDNVKKQISNLQQSISDAEQRGENALKDAKNKLNDLEDALQQAKEDLARLLRDYQELMNTKLALDLEIATYRTLLEGEESRMSGECAPNVSVSVSTSHTTISGGGSRGGGGGGYGSGGSSYGSGGGSYGSGGGGGGGRGSYGSGGSSYGSGGGSYGSGGGGGGHGSYGSGSSSGGYRGGSGGGGGGSSGGRGSGGGSSGGSIGGRGSSSGGVKSSGGSSSVRFVSTTYSGVTR
chain 2: MSVRYSSSKHYSSSRSGGGGGGGGCGGGGGVSSLRISSSKGSLGGGFSSGGFSGGSFSRGSSGGGCFGGSSGGYGGLGGFGGGSFRGSYGSSSFGGSYGGIFGGGSFGGGSFGGGSFGGGGFGGGGFGGGFGGGFGGDGGLLSGNEKVTMQNLNDRLASYLDKVRALEESNYELEGKIKEWYEKHGNSHQGEPRDYSKYYKTIDDLKNQILNLTTDNANILLQIDNARLAADDFRLKYENEVALRQSVEADINGLRRVLDELTLTKADLEMQIESLTEELAYLKKNHEEEMKDLRNVSTGDVNVEMNAAPGVDLTQLLNNMRSQYEQLAEQNRKDAEAWFNEKSKELTTEIDNNIEQISSYKSEITELRRNVQALEIELQSQLALKQSLEASLAETEGRYCVQLSQIQAQISALEEQLQQIRAETECQNTEYQQLLDIKIRLENEIQTYRSLLEGEGSSGGGGRGGGSFGGGYGGGSSGGGSSGGGHGGGHGGSSGGGYGGGSSGGGSSGGGYGGGSSSGGHGGSSSGGYGGGSSGGGGGGYGGGSSGGGSSSGGGYGGGSSSGGHKSSSSGSVGESSSKGPRY
notes: also called WT K1/K10
B1: the binding result in series [1] is “binds”.

B2: full-length wild-type K8/K18 heterodimeric complex (other, human)
chain 1: MSIRVTQKSYKVSTSGPRAFSSRSYTSGPGSRISSSSFSRVGSSNFRGGLGGGYGGASGMGGITAVTVNQSLLSPLVLEVDPNIQAVRTQEKEQIKTLNNKFASFIDKVRFLEQQNKMLETKWSLLQQQKTARSNMDNMFESYINNLRRQLETLGQEKLKLEAELGNMQGLVEDFKNKYEDEINKRTEMENEFVLIKKDVDEAYMNKVELESRLEGLTDEINFLRQLYEEEIRELQSQISDTSVVLSMDNSRSLDMDSIIAEVKAQYEDIANRSRAEAESMYQIKYEELQSLAGKHGDDLRRTKTEISEMNRNISRLQAEIEGLKGQRASLEAAIADAEQRGELAIKDANAKLSELEAALQRAKQDMARQLREYQELMNVKLALDIEIATYRKLLEGEESRLESGMQNMSIHTKTTSGYAGGLSSAYGGLTSPGLSYSLGSSFGSGAGSSSFSRTSSSRAVVVKKIETRDGKLVSESSDVLPK
chain 2: MSFTTRSTFSTNYRSLGSVQAPSYGARPVSSAASVYAGAGGSGSRISVSRSTSFRGGMGSGGLATGIAGGLAGMGGIQNEKETMQSLNDRLASYLDRVRSLETENRRLESKIREHLEKKGPQVRDWSHYFKIIEDLRAQIFANTVDNARIVLQIDNARLAADDFRVKYETELAMRQSVENDIHGLRKVIDDTNITRLQLETEIEALKEELLFMKKNHEEEVKGLQAQIASSGLTVEVDAPKSQDLAKIMADIRAQYDELARKNREELDKYWSQQIEESTTVVTTQSAEVGAAETTLTELRRTVQSLEIDLDSMRNLKASLENSLREVEARYALQMEQLNGILLHLESELAQTRAEGQRQAQEYEALLNIKVKLEAEIATYRRLLEDGEDFNLGDALDSSNSMQTIQKTTTRRIVDGKVVSETNDTKVLRH
notes: also called K8/18
For the molecule B2, the binding result in series [1] is listed as “binds”.

B3: K1-L318A/10-1B mutant heterodimer (other)
chain 1: NLEPYFESFINNLRRRVDQLKSDQSRLDSELKNMQDMVEDYRNKYEDEINKRTNAENEFVTIKKDVDGAYMTKVDLQAKLDNLQQEIDFLTAAYQAELSQMQTQIS
chain 2: not shown
notes: also called L318A^K1 (LA); K1-L318A/K10-1B
On to B3, for which, in series [2], the binding result is reported as “binds”.

B4: K1-F314A/10-1B mutant heterodimer (other)
chain 1: NLEPYFESFINNLRRRVDQLKSDQSRLDSELKNMQDMVEDYRNKYEDEINKRTNAENEFVTIKKDVDGAYMTKVDLQAKLDNLQQEIDALTALYQAELSQMQTQIS
chain 2: not shown
notes: also called F314A^K1 (FA); K1-F314A/K10-1B
Regarding B4, in series [2], the binding result is “no binding”.

B5: K1 F314A+L318A (FLAA)/K10-1B double mutant heterodimer (other)
chain 1: NLEPYFESFINNLRRRVDQLKSDQSRLDSELKNMQDMVEDYRNKYEDEINKRTNAENEFVTIKKDVDGAYMTKVDLQAKLDNLQQEIDALTAAYQAELSQMQTQIS
chain 2: not shown
notes: also called F314A^K1+L318A^K1
In the case of B5, the binding result in series [2] is “no binding”.

B6: keratin 1 helix 1B S233L (other)
chain: NLEPYFELFINNLRRRVDQLKSDQSRLDSELKNMQDMVEDYRNKYEDEINKRTNAENEFVTIKKDVDGAYMTKVDLQAKLDNLQQEIDFLTALYQAELSQMQTQIS
notes: Single chain of the mutant complex; also called K1^S233L-1B; K1-1B S233L
On to B6, for which the binding result in series [3] is reported as “binds”.

B7: keratin 1 helix 1B F314A+L318A (other)
chain: NLEPYFESFINNLRRRVDQLKSDQSRLDSELKNMQDMVEDYRNKYEDEINKRTNAENEFVTIKKDVDGAYMTKVDLQAKLDNLQQEIDALTAAYQAELSQMQTQIS
notes: Single chain; also called K1-1B mutant F314A+L318A; FLAA
Turning to B7, the binding result in series [4] is reported as “binds”.

B8: keratin 1 helix 1B L318A (other)
chain: NLEPYFESFINNLRRRVDQLKSDQSRLDSELKNMQDMVEDYRNKYEDEINKRTNAENEFVTIKKDVDGAYMTKVDLQAKLDNLQQEIDFLTAAYQAELSQMQTQIS
notes: Single chain; also called K1-1B mutant L318A; LA
For B8, in series [4], the binding result is “binds”.
